For one molecule, Kd results are on record in patent US20240317853A1 (UNIVERSITY OF TOKYO, published 2024).

The test concerns the target T1, CADM1FcΔ10 (Δ10 Fc variant formed by fusing human Fc with a CADM1 extracellular domain) (human).
T1 construct: The whole entry is the fusion (CADM1 extracellular domain, AAA linker, human IgG1 hinge-Fc); Dimerized via Fc; also called Fc10; dimerized FcΔ10
Kind of test: SPR (Biacore 8K), antibody amine-coupled on CM5, CADM1 as analyte, multi-cycle kinetics. As to the method: The antibody was diluted with a phosphate buffered saline (PBS) at a concentration of 1 mg/ml, and was then immobilized as a ligand on a sensor chip CM5 by an amine coupling method.

T1 sequence (chain, as listed by the source mutant limits assumed): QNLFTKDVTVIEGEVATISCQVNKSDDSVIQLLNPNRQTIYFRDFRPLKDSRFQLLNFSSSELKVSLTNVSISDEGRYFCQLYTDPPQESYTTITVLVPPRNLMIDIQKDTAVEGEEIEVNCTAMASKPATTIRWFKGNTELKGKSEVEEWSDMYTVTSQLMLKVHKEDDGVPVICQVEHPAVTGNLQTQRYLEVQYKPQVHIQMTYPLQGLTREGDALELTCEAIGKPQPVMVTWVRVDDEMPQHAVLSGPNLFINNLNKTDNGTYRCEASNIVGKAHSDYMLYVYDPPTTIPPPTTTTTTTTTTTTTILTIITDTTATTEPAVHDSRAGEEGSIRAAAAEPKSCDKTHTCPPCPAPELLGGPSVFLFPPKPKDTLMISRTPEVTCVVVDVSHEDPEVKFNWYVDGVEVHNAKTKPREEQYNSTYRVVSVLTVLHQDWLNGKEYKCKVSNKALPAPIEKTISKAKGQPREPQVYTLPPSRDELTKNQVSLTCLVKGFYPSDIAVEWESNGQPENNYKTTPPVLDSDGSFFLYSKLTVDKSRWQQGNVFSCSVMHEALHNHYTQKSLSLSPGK

B1: YTH-W-2C2 chimeric antibody (antibody, V domains shown)
VH: QVQLQQSGAELAKPGSSVKISCKASGYTFSNYDISWIKQTTGQGLDYIGYIHTGSGGTYYNEKFKGKATLTVDKSSSTAFMQLSSLTPEDTAVYYCARTPYVYYGSGYFDFWGPGTMVTVSS
VL: DIVMTQSPSSLAVSAGETVTINCKSSQSLLYSGNQKNYLAWYQQKPGQSPKLLIYWASTRQSGVPDRFIGSGSGTDFTLTISSVQAEDLAIYYCQQYYDTPDTFGAGTKLELKR
Take B1: the Kd came out at 0.64 nM.
